Reference: US20210317178A1 (D AND D PHARMATECH, published 2021)
Positions of bridges follow the written chain, without caps; N, C: chain ends. Non-standard residues stand in square brackets, D forms with d. No end group written: not given here. tri‑branched mPEG‑MAL 50 kDa = tri-branched maleimide-activated monomethoxy PEG, 50 kDa; Aib = CC(C)(N)C(=O)O

Assays:
human GLP-1 receptor = human GLP-1 receptor (human, UniProt P43220 24-463); experiment: cell-based or functional assay
[1] = target: human glucagon receptor (GCGR) (human, UniProt P47871 26-477); experiment: cell-based or functional assay
Chain of human glucagon receptor (GCGR) (P47871 26-477): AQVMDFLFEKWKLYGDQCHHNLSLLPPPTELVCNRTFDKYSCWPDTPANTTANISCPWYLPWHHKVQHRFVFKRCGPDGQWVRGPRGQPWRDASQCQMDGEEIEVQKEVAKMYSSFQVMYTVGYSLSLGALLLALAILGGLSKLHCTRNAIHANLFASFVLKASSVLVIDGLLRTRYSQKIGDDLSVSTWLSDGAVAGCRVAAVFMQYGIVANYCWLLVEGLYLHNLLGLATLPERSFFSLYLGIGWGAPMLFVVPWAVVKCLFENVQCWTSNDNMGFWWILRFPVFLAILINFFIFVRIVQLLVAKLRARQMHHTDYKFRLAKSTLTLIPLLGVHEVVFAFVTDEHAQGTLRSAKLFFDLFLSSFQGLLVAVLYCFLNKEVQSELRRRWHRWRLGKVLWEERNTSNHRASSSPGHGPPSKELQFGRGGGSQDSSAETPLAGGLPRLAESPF

EC50 of GLP-1 receptor (nM); cAMP (luciferase reporter) in HEK293/CRE-Luc cells (human GLP-1 receptor) [nM] | EC50 of glucagon receptor (GCGR) (nM); cAMP in CHO-K1 cells [1] [nM] | Binder
2.12 | 47 | H[Aib]QGTFTSDYSKYLDEQAAKEFVQWLMNTC(tri‑branched mPEG‑MAL 50 kDa) (lactam 16-20) [conjugate of Example 2 (polypeptide of SEQ ID NO. 2 bound to tri-branched mPEG-MAL, MW 50 kDa)]
0.13 | 38.6 | H[Aib]QGTFTSDYSKYLDEQAAKEFVQWLMNTC (lactam 16-20) [polypeptide of Example 1 (polypeptide into which cysteine was introduced, SEQ ID NO. 2)]
